Where “and” joins values, the source holds several entries; their conditions need not be identical. Identical values can stand only once.
T1: KRAS G12V peptide on HLA-A*02:01 (human)
T1 peptide: KLVVVGAVGV

T2: KRAS G12D peptide on HLA-A*02:01 (human)
T2 peptide: KLVVVGADGV

T3: KRAS wild type peptide on HLA-A*02:01 (human)
T3 peptide: KLVVVGAGGV


Tests used:
[1] = biological target: A*02:01-KRAS^G12V tetramer (human) (UniProt P61769); assay: tetramer staining of TCR-transduced T cells, flow cytometry (FIG. 24)
[2] = biological target: HLA-A*02:01 presented KRAS^G12V epitope on cells (human); assay: cell-based or functional assay
[3] = biological target: HLA-A*02:01 presented KRAS^G12D epitope on cells (human); assay: cell-based or functional assay
[4] = biological target: HLA-A*02:01 presented KRAS^wild type epitope on cells (human); assay: cell-based or functional assay
[5] = biological target: T1, KRAS G12V peptide on HLA-A*02:01; assay: multimer staining
[6] = biological target: T2, KRAS G12D peptide on HLA-A*02:01; assay: multimer staining
[7] = biological target: T3, KRAS wild type peptide on HLA-A*02:01; assay: killing
Experimental: (§1) KTCR1, KRAS^G12V-specific, HLA-A*02:01-restricted TCR and KTCR2 and KTCR3, KRAS^G12D-specific, HLA-A*02:01-restricted TCRs were co cultured with K562-A*02:01 antigen presenting cells which were peptide pulsed with either the KRAS^G12D, KRAS^G12V, KRAS^WT peptide (10 μg/mL) for 5 hours at an effector to target cell ratio of 5:1.

[8] = biological target: T1, KRAS G12V peptide on HLA-A*02:01; assay: killing
Experimental: as §1

[9] = biological target: T2, KRAS G12D peptide on HLA-A*02:01; assay: killing
Experimental: as §1

Binder	Mean % cytotoxicity (cell lysis) of K562 A*02:01 + KRAS^G12V target cells, FVS780 flow cytometry, 5 hours, effector to target 5:1 [2] [%]	Mean % cytotoxicity (cell lysis) of K562 A*02:01 + KRAS^G12D target cells, FVS780 flow cytometry, 5 hours, effector to target 5:1 [3] [%]	Mean % cytotoxicity (cell lysis) of K562 + KRAS^Wild type target cells, FVS780 flow cytometry, 5 hours, effector to target 5:1 [4] [%]	binding result [7]	binding result [8]	binding result [9]	also measured
KTCR-1 (TCR, V domains shown) Valpha: TQLLEQSPQFLSIQEGENLTVYCNSSSVFSSLQWYRQEPGEGPVLLVTVVTGGEVKKLKRLTFQFGDARKDSSLHITAAQPGDTGLYLCAGEFESNAGNMLTFGGGTRLMVKP Vbeta: DGGITQSPKYLFRKEGQNVTLSCEQNLNHDAMYWYRQDPGQGLRLIYYSQIVNDFQKGDIAEGYSVSREKKESFPLTVTSAQKNPTAFYLCASSIWLGPKGPGELFFGEGSRLTVL	16.5	4	2.9	no recognition	–	–	percent of TCR transduced T cells tetramer positive [1]: > 90%; IFNγ ELISpot, KTCR-1 CD8+ T cells co-cultured with CFPAC-1 (HLA-A*02:01^+ KRAS^G12V), Mean (SFU of IFNγ/2.0 × 10^4 cell input) [2]: 42; IFNγ ELISpot, KTCR-1 CD8+ T cells co-cultured with CFPAC-1 (HLA-A*02:01^+ KRAS^G12V), replicate (SFU of IFNγ/2.0 × 10^4 cell input) [2]: 52 and 42; IFNγ ELISpot, KTCR-1 CD8+ T cells co-cultured with PANC-1 (HLA-A*02:01^+ KRAS^G12D), Mean (SFU of IFNγ/2.0 × 10^4 cell input) [3]: 19.5; IFNγ ELISpot, KTCR-1 CD8+ T cells co-cultured with PANC-1 (HLA-A*02:01^+ KRAS^G12D), replicate (SFU of IFNγ/2.0 × 10^4 cell input) [3]: 13 and 18; binding result [5]: recognises; binding result [6]: no recognition
KTCR-2 (TCR, V domains shown) Valpha: GESVGLHLPTLSVQEGDNSIINCAYSNSASDYFIWYKQESGKGPQFIIDIRSNMDKRQGQRVTVLLNKTVKHLSLQIAATQPGDSAVYFCAENRDTDKLIFGTGTRLQVFP Vbeta: DGGITQSPKYLFRKEGQNVTLSCEQNLNHDAMYWYRQDPGQGLRLIYYSQIVNDFQKGDIAEGYSVSREKKESFPLTVTSAQKNPTAFYLCASSIWLGPKGPGELFFGEGSRLTVL	4	19.1	4.79	no recognition	no recognition	recognises	IFNγ ELISpot, KTCR-2 CD8+ T cells co-cultured with CFPAC-1 (HLA-A*02:01^+ KRAS^G12V), Mean (SFU of IFNγ/2.0 × 10^4 cell input) [2]: 11.5; IFNγ ELISpot, KTCR-2 CD8+ T cells co-cultured with CFPAC-1 (HLA-A*02:01^+ KRAS^G12V), replicate (SFU of IFNγ/2.0 × 10^4 cell input) [2]: 8 and 15; IFNγ ELISpot, KTCR-2 CD8+ T cells co-cultured with PANC-1 (HLA-A*02:01^+ KRAS^G12D), Mean (SFU of IFNγ/2.0 × 10^4 cell input) [3]: 98.5; IFNγ ELISpot, KTCR-2 CD8+ T cells co-cultured with PANC-1 (HLA-A*02:01^+ KRAS^G12D), replicate (SFU of IFNγ/2.0 × 10^4 cell input) [3]: 105 and 92
KTCR-3 (TCR, V domains shown) Valpha: TQLLEQSPQFLSIQEGENLTVYCNSSSVFSSLQWYRQEPGEGPVLLVTVVTGGEVKKLKRLTFQFGDARKDSSLHITAAQPGDTGLYLCAGEFESNAGNMLTFGGGTRLMVKP Vbeta: DTEVTQTPKHLVMGMTNKKSLKCEQHMGHRAMYWYKQKAKKPPELMFVYSYEKLSINESVPSRFSPECPNSSLLNLHLHALQPEDSALYLCASSLQITTDGYTFGSGTRLTVV	2	16.3	2.82	no recognition	no recognition	recognises	IFNγ ELISpot, KTCR-3 CD8+ T cells co-cultured with CFPAC-1 (HLA-A*02:01^+ KRAS^G12V), Mean (SFU of IFNγ/2.0 × 10^4 cell input) [2]: 21; IFNγ ELISpot, KTCR-3 CD8+ T cells co-cultured with CFPAC-1 (HLA-A*02:01^+ KRAS^G12V), replicate (SFU of IFNγ/2.0 × 10^4 cell input) [2]: 13 and 19; IFNγ ELISpot, KTCR-3 CD8+ T cells co-cultured with PANC-1 (HLA-A*02:01^+ KRAS^G12D), Mean (SFU of IFNγ/2.0 × 10^4 cell input) [3]: 63; IFNγ ELISpot, KTCR-3 CD8+ T cells co-cultured with PANC-1 (HLA-A*02:01^+ KRAS^G12D), replicate (SFU of IFNγ/2.0 × 10^4 cell input) [3]: 73 and 53

— patent US20220227883A1 (published 2022)
